Reference: patent publication US20240400677A1 (ELECTRA THERAPEUTICS, published 2024)

T1: cynomolgus monkey SIRPα on CHO cells (cynomolgus monkey, UniProt A0A2K5VYQ9 31-507)
T1 construct: whole, on cells; also called Cyno SIRPα CHO
T1 sequence: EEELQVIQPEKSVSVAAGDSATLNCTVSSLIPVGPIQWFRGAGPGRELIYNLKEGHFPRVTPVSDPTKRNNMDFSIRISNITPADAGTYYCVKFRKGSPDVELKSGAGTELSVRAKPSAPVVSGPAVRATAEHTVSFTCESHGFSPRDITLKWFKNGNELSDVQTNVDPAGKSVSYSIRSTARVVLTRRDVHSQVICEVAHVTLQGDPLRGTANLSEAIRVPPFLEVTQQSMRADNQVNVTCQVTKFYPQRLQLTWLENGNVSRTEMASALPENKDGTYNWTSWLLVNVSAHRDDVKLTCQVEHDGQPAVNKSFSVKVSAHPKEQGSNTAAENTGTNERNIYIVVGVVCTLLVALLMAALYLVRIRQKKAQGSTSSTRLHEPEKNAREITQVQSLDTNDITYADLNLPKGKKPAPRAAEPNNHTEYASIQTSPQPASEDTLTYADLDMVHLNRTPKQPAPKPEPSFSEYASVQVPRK

T2: cynomolgus monkey SIRPγ on CHO cells (cynomolgus monkey, UniProt Q9P1W8 29-386 (human entry))
T2 construct: also called Cyno SIRPγ CHO
T2 chain: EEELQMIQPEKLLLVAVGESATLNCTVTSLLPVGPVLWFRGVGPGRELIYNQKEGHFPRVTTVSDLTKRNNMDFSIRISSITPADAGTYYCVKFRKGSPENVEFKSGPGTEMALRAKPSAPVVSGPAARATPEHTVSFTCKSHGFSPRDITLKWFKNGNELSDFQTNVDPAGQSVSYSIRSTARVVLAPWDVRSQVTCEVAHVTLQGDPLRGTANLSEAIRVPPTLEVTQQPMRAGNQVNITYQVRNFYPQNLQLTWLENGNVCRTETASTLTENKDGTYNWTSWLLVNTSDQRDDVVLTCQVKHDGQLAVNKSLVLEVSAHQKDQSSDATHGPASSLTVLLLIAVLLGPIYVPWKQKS

T3: cynomolgus monkey SIRPγ-His monomer protein (cynomolgus monkey, UniProt Q9P1W8 29-359 (human entry), limits assumed)
T3 construct: also called Cyno SIRPγ; Cyno SIRPγ-His
T3 chain: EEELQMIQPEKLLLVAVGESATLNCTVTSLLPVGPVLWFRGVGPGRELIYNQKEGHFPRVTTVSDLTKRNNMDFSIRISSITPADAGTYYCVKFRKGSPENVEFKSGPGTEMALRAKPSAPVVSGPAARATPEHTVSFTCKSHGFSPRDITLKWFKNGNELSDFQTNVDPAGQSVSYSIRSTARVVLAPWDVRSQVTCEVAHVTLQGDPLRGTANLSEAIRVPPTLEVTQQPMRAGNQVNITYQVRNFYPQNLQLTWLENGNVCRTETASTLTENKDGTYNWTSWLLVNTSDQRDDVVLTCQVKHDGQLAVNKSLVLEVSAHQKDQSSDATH


Legend:
[1] = molecular target: T1, cynomolgus monkey SIRPα on CHO cells; experiment: flow cytometry
[2] = molecular target: T4, human SIRPβ1 on CHO cells (co-transfected with DAP12) (human, UniProt O00241 30-398); experiment: flow cytometry
T4 construct: whole, on cells; co-transfected with DAP12; also called Human SIRPβ1 CHO

[3] = molecular target: T5, human SIRPγ-His monomer protein (human, UniProt Q9P1W8 29-360); experiment: BLI Octet, V5-scFv PPE captured, SIRP-His 500 nM
T5 construct: also called hSIRPγ

[4] = molecular target: T6, human SIRPγ on stably transfected CHO cells (human, UniProt Q9P1W8 29-387); experiment: flow cytometry, myc-scFv PPE
T6 construct: also called Human SIRPγ CHO
How it was run: (§1)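 Read-out is median fluorescence intensity for each antibody concentration, measured after a titration series is bound to stably transfected CHO cells and stained with labelled anti-human IgG. The scFv data come from myc-tagged crude PPE, also run on parental CHO-K1, where fold change below 2.0 denotes no binding.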

[5] = molecular target: T2, cynomolgus monkey SIRPγ on CHO cells; experiment: flow cytometry, myc-scFv PPE
How it was run: as §1

[6] = molecular target: T3, cynomolgus monkey SIRPγ-His monomer …; experiment: BLI Octet, captured scFv PPE, cyno SIRP
Protocol: Unique binders were further tested for binding to human SIRPαV1, human SIRPαV2, and human SIRPβ1. Briefly, biotinylated anti-V5 was immobilized onto streptavidin biosensors. Each V5-tagged SIRPγ scFv antibody as crude PPE was captured by the anti-V5 antibody. SIRP-His monomer protein at 500 nM was exposed to the biosensor for binding to SIRP scFv. The biosensors were then exposed to wash buffer to measure off-rate kinetics. The resulting association and dissociation kinetics (kdis) was analyzed. […] Similarly, cross-reactivity to cynomolgus monkey SIRPγ, cynomolgus monkey SIRPα, and cynomolgus monkey SIRPβ1 were tested.

T4 sequence (O00241 30-398): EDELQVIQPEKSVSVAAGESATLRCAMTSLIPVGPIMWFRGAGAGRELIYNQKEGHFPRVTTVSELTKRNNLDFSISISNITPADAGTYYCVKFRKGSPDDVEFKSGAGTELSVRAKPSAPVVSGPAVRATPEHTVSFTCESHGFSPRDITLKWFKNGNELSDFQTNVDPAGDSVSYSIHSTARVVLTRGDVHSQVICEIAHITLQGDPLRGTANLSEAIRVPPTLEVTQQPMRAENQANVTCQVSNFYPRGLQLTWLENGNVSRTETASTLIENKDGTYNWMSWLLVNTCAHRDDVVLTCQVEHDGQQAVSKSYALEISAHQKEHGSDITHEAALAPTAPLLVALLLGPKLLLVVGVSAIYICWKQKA
T6 sequence (Q9P1W8 29-387 limits assumed): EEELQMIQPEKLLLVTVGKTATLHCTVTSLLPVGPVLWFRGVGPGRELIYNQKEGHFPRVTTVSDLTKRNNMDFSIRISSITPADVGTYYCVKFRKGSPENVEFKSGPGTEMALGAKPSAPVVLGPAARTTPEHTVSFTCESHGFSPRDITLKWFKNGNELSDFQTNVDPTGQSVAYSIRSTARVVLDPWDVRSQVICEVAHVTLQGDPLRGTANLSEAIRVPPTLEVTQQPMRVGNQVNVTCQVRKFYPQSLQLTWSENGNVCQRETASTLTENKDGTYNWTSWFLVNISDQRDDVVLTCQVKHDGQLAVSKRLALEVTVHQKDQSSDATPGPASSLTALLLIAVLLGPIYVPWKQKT
T5 sequence (Q9P1W8 29-360 limits assumed): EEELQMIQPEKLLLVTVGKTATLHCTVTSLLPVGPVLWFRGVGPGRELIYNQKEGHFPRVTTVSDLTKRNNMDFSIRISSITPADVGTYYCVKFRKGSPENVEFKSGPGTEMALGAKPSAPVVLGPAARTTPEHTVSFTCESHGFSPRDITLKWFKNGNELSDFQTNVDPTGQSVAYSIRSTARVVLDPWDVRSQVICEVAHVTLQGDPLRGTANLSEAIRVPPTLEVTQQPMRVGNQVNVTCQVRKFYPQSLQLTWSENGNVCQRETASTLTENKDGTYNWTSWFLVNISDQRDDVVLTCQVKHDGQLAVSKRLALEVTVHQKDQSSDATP

Row | Binder | binding result [1] | binding result [2] | kdis [3] [s⁻¹] | MFI fold change over parental CHO [4] [fold] | MFI fold change over parental CHO [5] [fold] | binding result [6]
1 | Antibody 10 (scFv, V domains shown, scFv in crude PPE, V5/myc-tagged) VH: QVQLVQSGAEVKKPGASVKVSCKASGGTFSNYDISWVRQAPGQGLEWMGMIDPSGGSTSYAQKFQGRVTMTRDTSTSTVYMELSSLRSEDTAVYYCARPYSSGWYYFDYWGQGTLVTVSS VL: DIQMTQSPSSLSASVGDRVTITCQASQDIHNYLNWYQQKPGKAPKLLIYDASNLETGVPSRFSGSGSGTDFTLTISSLQPEDFATYYCQQSYNTPPTFGQGTRLEIK | no binding (tested: fold change <2.0) | no binding (tested: fold change <2.0) | 0.001 to 0.01 | 38.3 | 23.1 | binds
2 | Antibody 23 (scFv, V domains shown, scFv in crude PPE, V5/myc-tagged) VH: QVQLVQSGAEVKKPGASVKVSCKASGGTFSNYDINWVRQAPGQGLEWMGWISAYNGNTNYAQKLQGRVTMTRDTSTSTVYMELSSLRSEDTAVYYCAAEAYGDYSLDPWGQGTLVTVSS VL: DIQMTQSPSSLSASVGDRVTITCQASQGISSYLNWYQQKPGKAPKLLIYAASSLQNGVPSRFSGSGSGTDFTLTISSLQPEDFATYYCQQSYSTPITFGQGTRLEIK | no binding (tested: fold change <2.0) | no binding (tested: fold change <2.0) | 0.001 to 0.01 | 21.6 | 16.5 | binds
3 | Antibody 47 (scFv, V domains shown, scFv in crude PPE, V5/myc-tagged) VH: QVQLVQSGAEVKKPGASVKVSCKASGYTFTTYGISWVRQAPGQGLEWMGWMDPNSGSTGYAQKFQGRVTMTRDTSTSTVYMELSSLRSEDTAVYYCARGRGNSYYYYYMDVWGKGTTVTVSS VL: DIQMTQSPSSLSASVGDRVTITCRASQRIGSYLNWYQQKPGKAPKLLIYGASNLQSGVPSRFSGSGSGTDFTLTISSLQPEDFATYYCQQANSFPFTFGPGTKVDIK | no binding (tested: fold change <2.0) | no binding (tested: fold change <2.0) | > 0.01 | 17.3 | 14.2 | binds
4 | Antibody 41 (scFv, V domains shown, scFv in crude PPE, V5/myc-tagged) VH: QVQLVQSGAEVKKPGSSVKVSCKASGGTFSNYAISWVRQAPGQGLEWMGGIIPIFGSTASYAQKFQGRVTITADESTSTAYMELSSLRSEDTAVYYCARGVGDDTLTDWGQGTLVTVSS VL: DIVMTQSPLSLPVTPGEPASISCRSSQSLLHSNGYNYLDWYLQKPGQSPQLLIYAASSLQSGVPDRFSGSGSGTDFTLKISRVEAEDVGVYYCMQALQTPLTFGGGTKVEIK | no binding (tested: fold change <2.0) | no binding (tested: fold change <2.0) | > 0.01 | 25.5 | 36.1 | binds
5 | Antibody 42 (scFv, V domains shown, scFv in crude PPE, V5/myc-tagged) VH: QVQLVQSGAEVKKPGASVKVSCKASGYTFTSYHMHWVRQAPGQGLEWMGWMNPNSGNTGYAQKFQGRVTMTRDTSTSTVYMELSSLRSEDTAVYYCARGGRVVRGVIKGWFDPWGQGTLVTVSS VL: not shown | no binding (tested: fold change <2.0) | no binding (tested: fold change <2.0) | > 0.01 | 15.9 | 14.5 | binds

Second part, the binder after the results:

Row | binding result [1] | binding result [2] | kdis [3] [s⁻¹] | MFI fold change over parental CHO [4] [fold] | MFI fold change over parental CHO [5] [fold] | binding result [6] | Binder
6 | no binding (tested: fold change <2.0) | no binding (tested: fold change <2.0) | > 0.01 | 18.6 | 18.3 | binds | Antibody 49 (scFv, V domains shown, scFv in crude PPE, V5/myc-tagged) VH: QVQLVQSGAEVKKPGSSVKVSCKASGGTFSSYAISWVRQAPGQGLEWMGVINPSGGSTSYAQKFQGRVTITADESTSTAYMELSSLRSEDTAVYYCARESRGYYGMDVWGQGTTVTVSS VL: not shown
7 | no binding (tested: fold change <2.0) | no binding (tested: fold change <2.0) | 0.001 to 0.01 | 19.5 | 10.3 | binds | Antibody 25 (scFv, V domains shown, scFv in crude PPE, V5/myc-tagged) VH: EVQLLESGGGLVQPGGSLRLSCAASGFTVGSWYMSWVRQAPGKGLEWVAHVSDDGSNEFYADSVKGRFTISRDNSKNTLYLQMNSLRAEDTAVYYCARSPGYCSSTSCYRYYGMDVWGQGTTVTVSS VL: DIQMTQSPSSLSASVGDRVTITCRTSQSIGTYLNWYQQKPGKAPKLLIYDASNLPTGVPSRFSGSGSGTDFTLTISSLQPEDFATYYCQNYNSALFGPGTKVDIK
8 | no binding (tested: fold change <2.0) | no binding (tested: fold change <2.0) | > 0.01 | 12.8 | 30.8 | binds | Antibody 50 (scFv, V domains shown, scFv in crude PPE, V5/myc-tagged) VH: QVQLVQSGAEVKKPGASVKVSCKASGYTFTGYYMHWVRQAPGQGLEWMGTINPSGGSTSYAQKFQGRVTMTRDTSTSTVYMELSSLRSEDTAVYYCVKGNGYYDLWGQGTLVTVSS VL: DIQMTQSPSSLSASVGDRVTITCRASQSISSWLAWYQQKPGKAPKLLIYDTSNLQGGVPSRFSGSGSGTDFTLTISSLQPEDFATYYCQQYDSFPWTFGQGTKVEIK
9 | no binding (tested: fold change <2.0) | no binding (tested: fold change <2.0) | 0.001 to 0.01 | 25.2 | 16.2 | binds | Antibody 18 (scFv, V domains shown, scFv in crude PPE, V5/myc-tagged) VH: QVQLVQSGAEVKKPGASVKVSCKASGYTFTGYYMHWVRQAPGQGLEWMGWMNPNSGNTGYAQKFQGRVTMTRDTSTSTVYMELSSLRSEDTAVYYCARGSGYDAGVFDYWGQGTLVTVSS VL: DIQMTQSPSSLSASVGDRVTITCRASQGIGNDLAWYQQKPGKAPKLLIYDAKDLHPGVPSRFSGSGSGTDFTLTISSLQPEDFATYYCQQSYSFPRTFGQGTRLEIK
10 | no binding (tested: fold change <2.0) | no binding (tested: fold change <2.0) | 0.001 to 0.01 | 17 | 3.71 | binds | Antibody 15 (scFv, V domains shown, scFv in crude PPE, V5/myc-tagged) VH: QVQLVQSGAEVKKPGASVKVSCKASGYSFTSYGISWVRQAPGQGLEWMGWISPYNGNTNYAQKLQGRVTMTRDTSTSTVYMELSSLRSEDTAVYYCAREAYGDYGDYFDYWGQGTLVTVSS VL: DIQMTQSPSSLSASVGDRVTITCRASQGVGDRSAWYQQKPGKAPKLLIYDASNLETGVPSRFSGSGSGTDFTLTISSLQPEDFATYYCQQADTFPYTFGQGTKLEIK
